Test [1] deals with Antigen B (monomeric lower molecular weight protein). The test is described as follows: Biacore SPR at 25°C; mAb captured on anti-human Fc (236.1±0.8 RU), Antigen B injected at 90 nM. In general terms: Surface plasmon resonance follows binding to a sensor surface in real time, without labels.
In test [2] the target is Antigen A (multivalent high molecular weight protein). The test is described as follows: Biacore SPR at 25°C; mAb captured on anti-human Fc (236.5±1.0 RU), Antigen A injected at 100 nM.

The substance isotype control antibody (CI) came in with an Antigen B bound - 90 nM (RU) in test [1] of 7 RU. In test [2], this substance came in with an Antigen A bound - 100 nM (RU) of 18 RU.

Values taken from US20210355238A1.
